The values that follow come from patent publication US12611470B2, “Chromatin-opening element for stable long term gene expression” (CZ Biohub SF, LLC, priority 2019, dated 2026).

What all share (format): cell-based, mouse
For series [1], the system named is Transduced P19 cells. Nature of the series: Epigenetic effector experiments: rescue of GFP expression in silenced transduced cells. The method, then:
GFP expression is rescued by treatment with DNA methylation inhibitor 5-aza-cytidine (5-aza) in day 18 UCOE-RSV cells from the lentiviral silencing experiment. Cells were replica plated at day 16, specified concentrations of 5-aza were introduced 24 hours later (with exception of control), and cells were passaged and assayed via flow cytometry 24 hours after chemical introduction for % GFP+ cells. Data is reported as mean±SD from three biological replicates.
GFP expression is rescued by treatment with HDAC inhibitor trichostatin A (TSA) in day 24 UCOE-RSV cells from the lentiviral silencing experiment. Cells were replica plated at day 22, specified concentrations of TSA were introduced 24 hours later (with exception of control), and cells were passaged and assayed via flow cytometry 24 hours after chemical introduction for % GFP+ cells. Data is reported as mean f SD from three biological replicates.
Cells were replica plated at day 16, specified concentrations of 5-aza were introduced 24 hours later (with exception of control), and cells were passaged and assayed via flow cytometry 24 hours after chemical introduction for % GFP+ cells. Data is reported as mean±SD from three biological replicates. In the graph, data is shown from left to right for each construct: no treatment, 2 μM 5-aza, 10 μM 5-aza. […] Cells were replica plated at day 22, specified concentrations of TSA were introduced 24 hours later (with exception of control), and cells were passaged and assayed via flow cytometry 24 hours after chemical introduction for % GFP+ cells. Data is reported as mean f SD from three biological replicates. In the graph, data is shown from left to right for each construct: no treatment, 0.05 μM TSA, 0.1 μM TSA. […] Cells were replica plated at day 19, treated with 0.1 μM TSA or 10 μM 5-aza (with exception of control) 24 hours later, and cells were passaged and assayed via flow cytometry 24 hours after chemical introduction for % GFP+ cells. Data is reported as mean f SD from three biological replicates. In the graphs for FIG. 6C and FIG. 6D, the data is shown from left to right for each construct: no treatment, 0.1 μM TSA, 10 μM 5-aza.
Replica-plated cell populations were treated with varying concentrations of 5-aza-2′-deoxycytidine (Sigma-Aldrich, A3656) or Trichostatin A (Sigma-Aldrich, T1952) 24 hours after passaging. TSA was purchased as a readymade 5 mM solution in DMSO, which was then diluted to a 0.05 μM or 0.1 μM concentration in P19 growth media. 5 mg of 5-aza-2′-deoxycytidine was dissolved in 1 mL of 1:1 acetic acid: water to make a 21.9 mM stock solution, which was then diluted in P19 growth media to 2 μM or 10 μM. Cells were assayed through flow cytometry after 24 hours. […]

The subject of series [2] is P19 cells. Description: Standalone (intrinsic) promoter activity screen, UCOE-GFP construct lacking the Ef1a promoter. To be noted: promoterless GFP construct, after two weeks of antibiotic selection. From the text: A schematic representation of the expression construct in which the candidate region (UCOE) is inserted upstream of the GFP gene in the absence of any other promoter sequences as used is shown as an inlay. As positive controls, the Ef1α promoter, the 2.2 kB A2UCOE sequence, and the 1.2 kB reverse orientation sequence 3′UCOE, were cloned into the same reporter construct as the candidate sequences. The percent GFP positive in the population was monitored as a metric for gene expression by flow cytometry analysis with each passage (% GFP). Stably transfected cells were assayed for % GFP+ and median fluorescent intensity (normalized to Ef1a promoter control). Data is reported as mean±SD from biological duplicates.
P19 cells were seeded at 25,000 cells/well in 12 well plates. 24 h after seeding, cells were transfected using Lipofectamine™ 2000 transfection reagent (Thermo Fisher) according to the manufacturer's instructions using 500 ng DNA/well and 2.5 μL of Lipofectamine per well. 24 hours after transfection, selection was initiated with 1 μg/mL puromycin (Sigma-Aldrich) in regular growth media and, from then on, cells were passaged at 1:15 or 1:20 dilutions whenever cells were 80-90% confluent (every 2-3 days) with frequent refreshing of puromycin-containing media to clear dead cells. After approximately 14-16 days, remaining cells were assumed to be stably transfected and were changed to regular growth media to initiate silencing experiments. During silencing experiments, the P19 cells were passaged every 2-3 days and re-seeded at 15,000 cells/well.
(§1) Fluorescence data throughout silencing experiments was obtained using a MACSQuant® VYB flow cytometer (Miltenyi Biotec). EGFP was measured through the 488-nm laser and 525/50 nm band pass filter. Flow cytometry data was analyzed using the FlowJo™ single cell flow cytometry analysis software (Tree Star). After being gated for singlets and viability, GFP+ gates in FlowJo were drawn such that a non-transfected or non-transduced P19 cell population was at 1% GFP+. Median values reported are of cells within the GFP+ gate, both % GFP positive and median are reported with the standard deviation of biological replicates.
As A2UOCE dually functions as a protective regulatory element and a universal promoter, the candidate UCOEs were further screened for standalone promoter activity. A similar experiment as the aforementioned screen was performed using a similar expression construct that lacked the Ef1a promoter. This construct was used to assess whether the candidate sequences could drive reporter expression and act as stand-alone functional promoters. Candidates were compared to the positive control of the EF1a promoter, which had ˜70% GFP+ cells after two weeks of antibiotic selection, showing a distinct positive population in the fluorescence histogram. The GFP+ gate (i.e., flow cytometry fluorescence threshold for GFP+ cells) was set to encompass 1% of untransfected cells and then applied to all samples. […] Such a result appears as a bimodal distribution on a histogram, with a peak below the gate threshold (i.e., GFP negative cell population) and a peak above it (i.e., the distinct GFP positive population mentioned above). […] In this study, a % GFP+ of at least 50% is considered to reflect the existence of a second population in the histograms, and thus a binary indicator of promoter function. […] The median GFP intensity of the GFP+ population was used a measure of the strength of the promoter, and normalized to the Ef1a positive control as shown in FIG. 2C.
This aligns with previous observations that the RNPA2B1 promoter is much stronger than that of CBX3 (Zhang, F., et al. (2010) Mol Ther, 18, 1640-1649 (7)). However, the RNPA2B1 promoter in A2UCOE is only 30% as strong as the EF1α promoter. […]

For series [3], the system named is P19 cells. Nature of the series: Lentiviral transduction silencing experiment, UCOE linked to CMV, EF1α, RSV or PGK promoter driving GFP.
Description: The graphs show the raw data of measured percent GFP positive cells (% GFP+) for each construct over time. Transduced populations were sorted into triplicate wells using FACS at day 0 (5 days after lentiviral transductions) to begin the study at 100% GFP positive cells. Expression is lost quickly within the first 10 days, and then stabilizes around day 15. Data is reported as mean±SD from biological triplicates. Two positive UCOE controls (A2UCOE, 3′UCOE) and a negative control (no insulator region) were used.
Percent GFP positive cells at the final timepoint (day 26 for CMV and RSV, day 27 for PGK and EF1α) of the lentivirus silencing experiment across the four tested promoters is plotted. P19 cells were FACS-sorted five days after transduction (day 0) and then assayed over a 26 or 27-day time period thereafter. Data is reported as mean±SD from three biological replicates.
Two plasmids (pCS3800: encoding HIV-1 Gag; pCS380: encoding VSVg envelope protein) were used with varying versions of the donor plasmid pCS3799. HEK293T cells were plated at 5×10^6 cells in a 10 cm dish. Twenty-four hours after plating, the three plasmids (10 μg donor, 8 μg pCS3800, 10 μg pCS3801) were co-transfected together using a calcium phosphate protocol (Zufferey, R. T. and Trono, D. (2001) Current Protocols in Human Genetics, 26 (1), 12.10.1-12.10.12; DOI: 10.1002/0471142905.hg1210s26 (55)). The total DNA was brought to 500 μL in water, to which 500 μL of 2×HEPES-buffered saline, pH7.0 (Alfa Aesar) was added and mixed. One-tenth of the total volume (100 μL) of 2.5 M calcium chloride (Sigma-Aldrich) was then added to the mixture, followed by a 20-minute incubation. The mixture was then added to the plate in a dropwise manner. Media was replaced six hours later, and the supernatant was collected at 48 hr after the transfection, filtered through 0.4 μm filter, and frozen at −80° C. in 1 mL aliquots. Lentiviral aliquots were thawed in a 37° C. bead bath before transductions.
P19 cells were plated at 20-30,000 cells/well in 12-well plates one day before transduction. Twenty-four hours after plating, cells were transduced at varying dilutions of the lentiviral stock (ranging from 1:2 to 1:100) in DMEM+10% FBS with 8 μg/mL polybrene (Santa Cruz Biotechnologies). Media was refreshed on P19 cells 24 hours after transduction, and cells were passaged and assayed through a MACSQuant® VYB flow cytometer (Miltenyi Biotec) 48 h after transduction. MOI was determined by reporter expression at this timepoint using the following formula: MOI=ln (1/1-p) where p is the % of cells that are GFP positive at 48 hours post-transduction (Chen, S. et al. (2015) Cell, 160, 1246-1260 (56)).
Cells were FACS-sorted on the BD Influx™ cell sorter at the Stanford FACS Facility using the 488-nm laser and 525/40 filter to assay GFP expression. After gating for singlets and viability, GFP+ gate was drawn to be <0.1% GFP positive in non-transduced P19 cells. GFP+ gates were re-drawn for each promoter set to avoid the ˜10% highest and lowest expressing cells within the GFP+ gate, but the same gate was used for every experimental condition under the same promoter. Triplicate wells of each population (12-15,000 cells/well in a 24-well plate) were collected.
as §1, with “replicates. […]” for “replicates.”

Take `Nc1ncn([C@@H]2O[C@H](CO)[C@@H](O)[C@H]2O)c(=O)n1` [Candidate 5-aza, 5-azacytidine]: in series [1] (all examined populations, range of concentrations), the “reactivation of GFP expression” value is recorded as “dose-dependent increase in % GFP positive cells”. This molecule returned a silenced cells rescued in series [1] (highest dose of 5-aza, RSV promoter-only construct, day 18 cells, 24 h treatment) of 63%.

B1: EF1a promoter: Elongation Factor 1 promoter, positive control for promoter activity (nucleic acid)
DNA: AATGTAGTCTTATGCAATACTCTTGTAGTCTTGCAACATGGTAACGATGAGTTAGCAACATGCCTTACAAGGAGAGAAAAAGCACCGTGCATGCCGATTGGTGGAAGTAAGGTGGTACGATCGTGCCTTATTAGGAAGGCAACAGACGGGTCTGACATGGATTGGACGAACCACTGAATTCCGCATTGCAGAGATATTGTATTTAAGTGCCTAGCTCGATACAATAAACGCCATTTGACCATTCACCACATTGGTGTGCACC
modifications: Rous sarcoma virus
As to B1, the “% GFP+ cells” value in series [2] was approximately 70%. Further, the “% GFP+ cells, representative flow cytometry example” value in series [2] (one representative example) was found to be 74.2%.

B2: Candidate 6-1: Truncated SRF-UCOE variant having a 106 base pair 5′ end deletion, SEQ ID NO:2 (nucleic acid)
DNA: TTCAAAGTGCAGGGCAGACAGCAGGTGGCTCTGCCCAGGCGCCTGGATCACAGCCCGGCCTGCAGCCCTCACCTGGGCGCGGGGAGACCCTGAGGACGCTCCTCCAGGCGGCGCTGGCCGGGGCCTGCGGACACGGACGGGCGGGCTGAGCTCCGGGACCCCTCCCCGCGCCCCGCACCCCGCACCCCGCACCCCGCACCCCGCACCCGGCGCTCACCCGTCCCAGCCCCGCCGCCCGCAGCCCCAGCTGCAACGCAGCCACCGCCGCCATCGCACCCGGCCCCGCGGGCGCTTCCGGGACGCAGGAGGCATCTGCATCCGGGGCGCCGCTGAGTCCCGCCCAGAGCCCCGCCCCCGGCTCCAGGTTCTGCGAGCGGCTTCCGCCGGGCTGCTCCGCGGGCGCGTCGGCCATGAGCGAGTTGCCGGGCGACGTGCGGGCGTTTCTGCGGGAGCACCCGAGCCTGCGGCTCCAGACGGACGCCCGCAAGGTTCGCAGCGCGGGAGGGGAACGGAGTGGCGGAGAAGGGCGCAGTTGGGATGAGGGGCTGAGGGGAGGGCAGGGGAGAGGAGAGGGCAGGGGAGAGGGGAGAGGGGAGAGCAGGAGAGAGGGGAAGGCAGGGGAGAGGGCGCGGCGGGATCAGGGGAGGAGAGGGAAGGGGGCGCGGCAGGAGGGGGCACCAGGGAGCGGAGCCCTGGCCCTCCTGACGTCCTGCCCGCCCACGCGTCCGCAGGTGAGGTGCATCCTGACAGGTCACGAGCTGCCCTGCCGCCTGCCGGAGCTCCAGGTCTACACCCGCGGCAAAAAGTACCAGCGGCTGGTCCGCGCCTCCCCGGCCTTCGACTATGCAGAGTTCGAGCCGCACATCGTGCCCAGCACCAAGAACCCGTAGGTGGTC
For B2, in series [3] (CMV promoter, day 26), the “% GFP+ cells at final timepoint” value is given as 39% and the “improvement over the negative control” value was 3 fold. Moreover, the “GFP positive cells / expression compared to the negative control” value in series [3] (Ef1α promoter, final timepoint) is recorded as 3.6 times. In addition, in series [3] (PGK promoter, day 27), the “% GFP+ cells at final timepoint” value worked out at 31% and the “expressing cells / improvement over the negative control” value came out at 5 fold. Besides, in series [3] (RSV promoter, day 26), the “% GFP+ cells at final timepoint” value is 68%.
